Each block holds one binder with its values, some of them ahead of it.
Columns and labels:
[1] = target: Mito-mCh (AKAP1-mCh, mitochondria-anchored mCherry) (human) (UniProt Q92667); assay: Mito-to-cytosol ratio of GFP-rapabody in HeLa cells against rapamycin dose; the concentration is that of rapamycin, not of a protein
[2] = target: NE-tethered SH2 domain of Abl kinase (SH2 fused with mEmerald-lamin A) (UniProt P00519); assay: NE/NP ratio of mCh signal in HeLa cells over light-dark cycles
[3] = target: Mito-mCh (AKAP1-mCh, mitochondria-anchored mCherry) (human) (UniProt Q92667); assay: mitochondria translocation assay in HeLa cells, 5 µM caffeine
[4] = target: Mito-mCh (AKAP1-mCh, mitochondria-anchored mCherry) (human) (UniProt Q92667); assay: mitochondria translocation assay in HeLa cells, caffeine washed out
[5] = target: Mito-mCh (AKAP1-mCh, mitochondria-anchored mCherry) (human) (UniProt Q92667); assay: Mito-to-cytosol ratio of GFP-caffebody in HeLa cells against caffeine dose; the concentration is that of caffeine, not of a protein
[6] = target: ER anchored mCh (mCh fused with human Sac1 residues 521-587) (human) (UniProt Q9NTJ5); assay: cytosol-to-ER translocation in HeLa cells under light
[7] = target: Mito-mCh (AKAP1-mCh, mitochondria-anchored mCherry) (human) (UniProt Q92667); assay: cytosol-to-mitochondria translocation in HeLa cells under light

B3: GFP-caffebody (anti-mCh nanobody LaM8 with 2xacVHH in the S3 loop) (VHH, not shown: large carriers)
chain: MAQVQLVESGGGLVQAGGSLRLSCAVSGRPFSEYNLGWFRQAPGKEREFVARIRSSGTTVYTDSVKGRFSASRDNAEVQLQASGGGLVQAGGSLRLSCTASGRTGTIYSMAWFRQAPGKEREFLATVGWSSGITYYMDSVKGRFTISRDNAKNSAYLQMNSLKPEDTAVYYCTATRAYSVGYDYWGQGTQVTVSHAAAGAPVPYPDPLEPREQKLISEEDLLEAVYSGGGGGGGSGGGGGGGSGGGGGGGSGEVQLQASGGGLVQAGGSLRLSCTASGRTGTIYSMAWFRQAPGKEREFLATVGWSSGITYYMDSVKGRFTISRDNAKNSAYLQMNSLKPEDTAVYYCTATRAYSVGYDYWGQGTQVTVSKNMGYLQLNSLEPEDTAVYYCAMSRVDTDSPAFYDYWGQGTQVTVSTPRS
- half-life of caffeine-induced translocation to the antigen (t½, on) [3]: 16.3 s
- deactivation half-life after withdrawal of caffeine [4]: 23.6 s
- EC50 of caffeine (dose of the small-molecule switch) for binding to the antigen [5]: 2300 nM

B4: GFP-2xsunbody (dimeric concatemer of sunbody) (VHH, not shown: large carriers)
chain: LATTLERIEKNFVITDPRLPDNPIIFASDSFLQLTEYSREEILGRNCRFLQGPETDRATVRKIRDAIDNQTEVTVQLINYTKSGKKFWNLFHLQPMRDQKGDVQYFIGVQLDGTEHVRDAAEREGVMLIKKTAENIDEAAKELKLMAQVQLVESGGGLVQAGGSLRLSCAVSGRPFSEYNLGWFRQAPGKEREFVARIRSSGTTVYTDSVKGRFSASRDNALERIEKNFVITDPRLPDNPIIFASDSFLQLTEYSREEILGRNCRFLQGPETDRATVRKIRDAIDNQTEVTVQLINYTKSGKKFWNLFHLQPMRDQKGDVQYFIGVQLDGTEHVRDAAEREGVMLIKKTAENIDEAAKNMGYLQLNSLEPEDTAVYYCAMSRVDTDSPAFYDYWGQGTQVTVSTPRSLATTLERIEKNFVITDPRLPDNPIIFASDSFLQLTEYSREEILGRNCRFLQGPETDRATVRKIRDAIDNQTEVTVQLINYTKSGKKFWNLFHLQPMRDQKGDVQYFIGVQLDGTEHVRDAAEREGVMLIKKTAENIDEAAKELKLMAQVQLVESGGGLVQAGGSLRLSCAVSGRPFSEYNLGWFRQAPGKEREFVARIRSSGTTVYTDSVKGRFSASRDNALERIEKNFVITDPRLPDNPIIFASDSFLQLTEYSREEILGRNCRFLQGPETDRATVRKIRDAIDNQTEVTVQLINYTKSGKKFWNLFHLQPMRDQKGDVQYFIGVQLDGTEHVRDAAEREGVMLIKKTAENIDEAAKNMGYLQLNSLEPEDTAVYYCAMSRVDTDSPAFYDYWGQGTQVTVSTPRS
- fold increase in the signal-to-background ratio against 1x sunbody [6]: > 2 fold
- fold increase in the signal-to-background ratio against 1x sunbody [7]: > 2 fold

Continued, values first:

- EC50 of rapamycin (dose of the small-molecule switch) for release from the antigen [1]: 1600 nM
B1: GFP-rapabody (anti-mCh nanobody LaM8 with UniRapR in the S3 loop) (VHH, not shown: large carriers)
chain: QLVESGGGLVQAGGSLRLSCAVSGRPFSEYNLGWFRQAPGKEREFVARIRSSGTTVYTDSVKGRFSASRDNATCVVHYTGMLEDGKKFDSSRDRNKPFKFMLGKQEVIRGWEEGVAQMSVGQRAKLTISPDYAYGATGHGSGSGSGVKDLLQAWDLYYHVFRRISGPPGPGSGLWHEMWHEGLEEASRLYFGERNVKGMFEVLEPLHAMMERGPQTLKETSFNQAYGRDLMEAQEWCRKYMKSGSSGGSGSGIIPPHATLVFDVELLKLEKNMGYLQLNSLEPEDTAVYYCAMSRVDTDSPAFYDYWGQGTQVTVSTPRS

- activation half-life (light-induced dissociation from the antigen) [2]: 7.8 s
- deactivation half-life (return to the antigen in the dark) [2]: 46.5 s
B2: mCh-moonbody (anti-SH2 moonbody, variant S5.1) (designed binder, not shown: large carriers)
chain: VSSVPTKLEVVDATPTSLKISWDAYYSSWQNVKYYRITYGETGGDSPVQEFTVPGYYSTATISGLKPGSGLATTLERIEKNFVITDPRLPDNPIIFASDSFLQLTEYSREEILGRNCRFLQGPETDRATVRKIRDAIDNQTEVTVQLINYTKSGKKFWNLFHLQPMRDQKGDVQYFIGVQLDGTEHVRDAAEREGVMLIKKTAENIDEAAKELGVDYTITVYAYDTFFPGYEPNSPISINYRT
